The target in this experiment is EGFR-Flag (UniProt P00533). Kind of experiment: cell-based or functional assay.

The text below walks through data of patent US20090036380A1, “Composition And Method For Brain Tumor Therapy” (Yeda Research and Development Co., Ltd., priority 2006, published 2009).

Sequence of HA-Karet (full-length mouse Karet with N-terminal haemagglutinin tag) (Q8K2Y9 whole entry): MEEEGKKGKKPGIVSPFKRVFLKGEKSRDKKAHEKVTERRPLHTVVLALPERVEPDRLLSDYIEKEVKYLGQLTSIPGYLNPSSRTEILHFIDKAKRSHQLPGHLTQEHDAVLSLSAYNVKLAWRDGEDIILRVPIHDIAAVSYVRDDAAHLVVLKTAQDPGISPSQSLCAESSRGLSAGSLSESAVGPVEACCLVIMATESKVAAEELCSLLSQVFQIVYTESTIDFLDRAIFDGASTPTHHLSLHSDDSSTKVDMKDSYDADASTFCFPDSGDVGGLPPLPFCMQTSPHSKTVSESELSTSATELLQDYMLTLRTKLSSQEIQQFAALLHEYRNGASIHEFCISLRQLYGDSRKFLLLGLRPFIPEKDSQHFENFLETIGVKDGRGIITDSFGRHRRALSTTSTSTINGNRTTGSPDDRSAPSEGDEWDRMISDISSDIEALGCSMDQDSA

With “HA-Karet (full-length mouse Karet with N-terminal haemagglutinin tag) (from UniProt Q8K2Y9 1-453)”, the decrease in cell viability, Hek cells co-transfected with EGFR and Karet (XTT) amounted to 40%.
